# Results: patent US20190031713A1 (Regeneron, published 2019)
# B1: differentially modified heterodimeric human IgG2 Fc/ΔAdpFc (other)
# chain 1: ERKCCVECPPCPAPPVAGPSVFLFPPKPKDTLMISRTPEVTCVVVDVSHEDPEVQFNWYVDGVEVHNAKTKPREEQFNSTFRVVSVLTVVHQDWLNGKEYKCKVSNKGLPAPIEKTISKTKGQPREPQVYTLPPSREEMTKNQVSLTCLVKGFYPSDIAVEWESNGQPENNYKTTPPMLDSDGSFFLYSKLTVDKSRWQQGNVFSCSVMHEALHNHYTQKSLSLSPGK
# chain 2: ERKCCVECPPCPAPPVAGPSVFLFPPKPKDTLMISRTPEVTCVVVDVSHEDPEVQFNWYVDGVEVHNAKTKPREEQFNSTFRVVSVLTVVHQDWLNGKEYKCKVSNKGLPAPIEKTISKTKGQPREPQVYTLPPSREEMTKNQVSLTCLVKGFYPSDIAVEWESNGQPENNYKTTPPMLDSDGSFFLYSKLTVDKSRWQQGNVFSCSVMHEALHNRFTQKSLSLSPGK
# B2: unmodified human homodimeric IgG2 Fc/Fc (other, UniProt P01859-1 99-326, looked up)
# chain: ERKCCVECPPCPAPPVAGPSVFLFPPKPKDTLMISRTPEVTCVVVDVSHEDPEVQFNWYVDGVEVHNAKTKPREEQFNSTFRVVSVLTVVHQDWLNGKEYKCKVSNKGLPAPIEKTISKTKGQPREPQVYTLPPSREEMTKNQVSLTCLVKGFYPSDISVEWESNGQPENNYKTTPPMLDSDGSFFLYSKLTVDKSRWQQGNVFSCSVMHEALHNHYTQKSLSLSPGK
# notes: domain: Fc; also called hIgG2 Fc/Fc; hIgG2
# Molecular target: T1, Protein A (on chromatography support) (UniProt P38507 37-327)
# T1 construct: Commercial recombinant Protein A resins; also called rProtein A FF; NAb Protein A Plus
# Experiment: rProtein A FF column, pH gradient, 20 mM sodium citrate, 1 M NaCl
# Description: The solvent system consisted of solvent A (PBS, 1×), solvent B (20 mM sodium citrate and 1 M NaCl, pH 5.5) and solvent C (20 mM sodium citrate and 1M NaCl, pH 2.5). The elution started with an isocratic elution with 100% A in the first 20 min followed by a quick switch to 100% B at 20 min. […] A linear gradient from 33.5% C to 100% C was followed for 30 min. The flow rate was kept 250 microliters/min and the chromatograms were detected at 280 nm by a UV detector.
row,Binder,elution pH from Protein A column [pH]
1,B1,4.5
2,B2,3.5
